{
  "source": "paper PMC3662962",
  "about": "(Biochemical and biophysical research communications, 2010)",
  "biological_target": "the molecule itself",
  "data": [
    {"protein": "PAS domain of Mycobacterium tuberculosis Rv1364c (residues 1-163) (domain or fragment, Se-Methionine labeled (the crystallised protein only)) MAAEMDWDKTVGAAEDVRRIFEHIPAILVGLEGPDHRFVAVNAAYRGFSPLLDTVGQPAREVYPELEGQQIYEMLDRVYQTGEPQSGSEWRLQTDYDGSGVEERYFDFVVTPRRRADGSIEGVQLIVDDVTSRVRARQAAEARVEELSERYRNVRDSATVMQQ", "values": [
      {"measurement": "stoichiometry N", "value": 2}
    ]}
  ]
}
